Reference: US11492376B2, “Toxoplasma gondii GRA8-derived recombinant peptides and composition for preventing or treating cancer comprising the same” (Industry—University Cooperation Foundation Hanyang …, priority 2019, dated 2022)

Biological target: T1, complex V OXPHOS (Homo sapiens, UniProt P25705)
T1 construct: rATRAM-GRA8-M/AS enhanced complex V OXPHOS activity, mitochondrial mass and mitochondrial DNA content via SIRT3 and PKCα in HCT116 cells; endogenous in cells; host or cells: HCT116 cells
Test: Mitochondria complex V OXPHOS activity assay in HCT116 cells
Assay type: cell-based
Experimental: FIGS. 4A, 4B, 4C, 4D and 4E show HCT116 cell death by rATRAM-GRA8-M/AS-induced mitochondrial activation [(A and B) HCT116 cells were incubated with WT rGRA8 or rATRAM-GRA8-M/AS and its mutants for indicated times, and then cell viability was measured with an MTT assay. […] The cells were stimulated with rATRAM-GRA8-M/AS for 1 day and subjected to enzymatic activity of OXPHOS V, and (C) MitoTracker fluorescence signals were assessed by flow cytometry. (D) A bar graph indicates a mitochondrial mass (MFI), and (E) the mtDNA content of BMDM was measured by quantitative real-time PCR. The mtDNA content was normalized by nuclear DNA. Significant differences were determined by comparison with control treatment (** P<0.01; *** P<0.001). Data represents five independent experiments with similar results].
The activity of complex V was measured using a MitoTox Complex V OXPHOS Activity Microplate Assay kit manufactured by Abcam (ab109907, MA, Cambridge) according to the manufacturer's instructions. The activity of complex V was measured by monitoring the change in absorbance at 340 nm for 1 hour at 30° C. Oligomycin (Sigma, 04876) was used as a positive control for the assay.

B1: (GLAGLAGLLGLEGLLGLPLGLLEGLWLGLELEGN)2-GG-ATATTTTTTR-GG-YRFTVQTTQN (protein)
chain: GLAGLAGLLGLEGLLGLPLGLLEGLWLGLELEGNGLAGLAGLLGLEGLLGLPLGLLEGLWLGLELEGNGGATATTTTTTRGGYRFTVQTTQN
modifications: His tag; rATRAM-G8-M/AS
For B1, the “complex V OXPHOS activity” value (HCT116 cells, 1 day, via SIRT3 and PKCα) was “enhanced” and the “mitochondrial activity (Oxphos V activity, mitochondrial mass and ATP production) in cancer cells” value (summary statement, FIG. 4) was “induced”.
